The target of this data set is T1, hDNA2 D277A (nuclease-deficient) (Homo sapiens, UniProt P51530 1-1060, D277A).
T1 sequence: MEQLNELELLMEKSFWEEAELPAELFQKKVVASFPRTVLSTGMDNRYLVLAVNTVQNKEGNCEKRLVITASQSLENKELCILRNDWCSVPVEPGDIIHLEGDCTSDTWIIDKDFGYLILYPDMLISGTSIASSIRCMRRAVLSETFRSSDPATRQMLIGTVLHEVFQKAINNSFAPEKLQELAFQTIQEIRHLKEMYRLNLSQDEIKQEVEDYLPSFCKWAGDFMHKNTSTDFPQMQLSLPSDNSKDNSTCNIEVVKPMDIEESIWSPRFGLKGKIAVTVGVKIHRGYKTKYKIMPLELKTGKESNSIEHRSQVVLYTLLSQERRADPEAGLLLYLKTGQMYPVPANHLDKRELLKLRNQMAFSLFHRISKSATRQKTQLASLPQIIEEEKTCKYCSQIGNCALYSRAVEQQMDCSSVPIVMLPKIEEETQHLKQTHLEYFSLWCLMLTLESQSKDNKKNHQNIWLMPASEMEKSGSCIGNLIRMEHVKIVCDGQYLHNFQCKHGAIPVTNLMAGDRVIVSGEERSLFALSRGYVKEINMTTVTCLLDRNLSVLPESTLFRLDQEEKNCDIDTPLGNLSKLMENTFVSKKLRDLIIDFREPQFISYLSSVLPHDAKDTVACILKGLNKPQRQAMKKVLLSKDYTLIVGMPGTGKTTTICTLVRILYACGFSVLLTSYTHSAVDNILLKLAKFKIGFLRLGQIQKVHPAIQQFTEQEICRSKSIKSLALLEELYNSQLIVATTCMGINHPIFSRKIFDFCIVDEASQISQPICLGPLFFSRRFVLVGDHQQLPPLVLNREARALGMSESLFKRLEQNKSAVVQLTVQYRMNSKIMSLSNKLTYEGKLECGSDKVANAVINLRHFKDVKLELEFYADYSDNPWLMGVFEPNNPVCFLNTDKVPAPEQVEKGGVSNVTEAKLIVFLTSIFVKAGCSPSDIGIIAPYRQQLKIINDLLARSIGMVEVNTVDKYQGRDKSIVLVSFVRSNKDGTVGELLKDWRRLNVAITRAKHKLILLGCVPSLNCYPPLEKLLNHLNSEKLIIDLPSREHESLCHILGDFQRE
Put plainly: EMSA; no RPA; 25 mM Tris-acetate pH 7.5, 2 mM Mg acetate, 1 mM DTT, 0.1 mg/ml BSA, 1 nM DNA, 37 C 30 min; 6% PAGE in TAE on ice. The note with it: protein: recombinant; tags: N-terminal 6xHis, C-terminal FLAG; label: 5' 32P; single strand. (In general: A gel shift assay detects complexes by their altered migration in electrophoresis.)

This is an account of results in publication PMC5030094, “Human DNA2 possesses a cryptic DNA unwinding activity that functionally integrates with BLM or WRN helicases”.

Usually Kd stands for a measure of binding affinity in units of concentration.

B1: ssDNA 50 nt (X12-3) (ssDNA)
DNA: GACGTCATAGACGATTACATTGCTAGGACATGCTGTCTAGAGACTATCGC
In the case of B1, the dissociation constant (Kd) was ~2 nM.
